For experiment [1], the target named is T1, Glutaminase Interacting Protein (GIP), recombinant (UniProt O14907 1-124).
T1 sequence (looked up): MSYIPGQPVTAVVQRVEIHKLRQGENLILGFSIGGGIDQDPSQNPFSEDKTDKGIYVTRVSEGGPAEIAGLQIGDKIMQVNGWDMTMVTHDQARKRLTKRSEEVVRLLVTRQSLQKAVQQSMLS
As to the kind of experiment: NMR titration.

The target in experiment [2] is T1, Glutaminase Interacting Protein (GIP), …. The experiment is described as follows: NMR titration. The source holds these as a separate data set.

No end group written: not given here.

As for RDGDFQTEV-OH [BAI2 C-terminal peptide (RDGDFQTEV-COOH)], in experiment [1], the Kd (usually the concentration at which binding is half-saturated) amounted to 97.8 µM. In experiment [2], the “KD from residue A66 of GIP” value amounted to 86.6 µM, the “KD from residue D38 of GIP” value came out at 92.5 µM, the “KD from residue E17 of GIP” value amounted to 64.8 µM and the “KD from residue E62 of GIP” value was 102 µM. In experiment [2], the “KD from residue E102 of GIP” value stood at 118 µM, the “KD from residue F46 of GIP” value came to 138 µM, the “KD from residue L71 of GIP” value was determined as 85.8 µM and the “KD from residue N81 of GIP” value worked out at 84.3 µM. Also, the “KD from residue T86 of GIP” value in experiment [2] was found to be 104 µM.

Source of the values: publication PMC3157015 (Biochemical and biophysical research communications, 2011).
